Laboratory results taken from patent US20240254204A1 (NATIONAL UNIVERSITY OF SINGAPORE, published 2024).
Numbering of substitutions follows the chain as printed. Where “and” joins values, the source holds several entries; their conditions need not be identical. Equal entries are not always repeated.

B1: Antibody 11 (SS6V11-E7) (antibody, V domains shown)
VH: QVQLQESGPGLVKPSETLSLTCTVSGGFIGPHYWSWVRQPPGKGLEWIGYIYISGSTNYNPSLKSRLTISVDMSKSQFSLTLSSATAADTAVYYCARGGGYLETGPFEYWGQGTLVTVSS
VL: DIVMTQSPLSLPVTPGEPASISCRSSQSLLQNNGYNYLAWYLQKPGQSPQLLIYLSSTRASGVPDRFSGSGSGTDFTLKISRVEAEDVGVYYCMQSLQIPGTFGQGTRLEIK
B2: Antibody 13 (SS6V13-F1) (antibody, V domains shown)
VH: QVQLQESGPGLVKPSETLSLTCSVSGVSILGSYWGWIRQPPGTGLQWIGYIYFSENTNYNPSLQSRVTMSLDTSKNLLSLKLSSVTAADTAVYYCARGGGYLETGPFDSWGQGTLVTVSS
VL: B1 VL with S28G, L30V, N32S, S56G, T58N, S96G, I99T
B3: Antibody 20 (SS6V20-F5) (antibody, V domains shown)
VH: QVQLQESGPGLVKPSETLSLTCTVSGGSIIGYYWSWIRQPPGKGLEWIGYIYFSANTNYNPSLKSRVTMSVDMSKKQFSLKLRSVTAADTAVYYCARGGGYLETGPLDFWGQGILVTVSS
VL: B1 VL with L30M, N32L, K44R, S56G, S81T, S96G

Target: WIV-1 full-length spike (SC1r-CoV WIV-1)
Assay: cell-based or functional assay

Binder | pseudovirus neutralization NT50
B1 | < 10 ng/ml and < 0.067 nM
B2 | < 10 ng/ml and < 0.067 nM
B3 | < 10 ng/ml and < 0.067 nM

Target: SARS-COV-2 Wuhan-hu-1 (ancestral) full-length spike (SARS-CoV-2)
Assay: cell-based or functional assay

Binder | pseudovirus neutralization NT50
B1 | < 10 ng/ml and < 0.067 nM
B2 | < 10 ng/ml and < 0.067 nM
B3 | < 10 ng/ml and < 0.067 nM

Target: SARS-COV-1 full-length spike (SARS-CoV)
Assay: cell-based or functional assay

Binder | pseudovirus neutralization NT50
B1 | < 10 ng/ml and < 0.067 nM
B2 | < 10 ng/ml and < 0.067 nM
B3 | < 10 ng/ml and < 0.067 nM
